According to patent US20200181597A1, “Composition and Application of Arginine-depleting Agents for Cancer, Obesity, Metabolic Disorders, and Related Complications and Comorbidities” (THE HONG KONG POLYTECHNIC UNIVERSITY, priority 2018, published 2020):

Assays:
[1] = system: mouse primary hepatocytes; assay: Mouse primary hepatocytes: MTT viability and pAkt Western blot; format: cell-based
Method: Data are expressed as mean±SEM, n=5 for each group. […] (C) Western blot analysis of protein levels of phosphorylated Akt (pAkt) (marker of insulin signaling) in […] […] Lane 1: con; Lane 2: 5U/mL N-ABD094-rhArg (SEQ ID NO: 50); Lane 3: 100 nM insulin; Lane 4: 5U/mL N-ABD094-rhArg (SEQ ID NO: 50) +100 nM insulin.
Obesity is highly associated with insulin resistance. We therefore conducted both in vivo and in vitro study to determine whether N-ABD094-rhArg (SEQ ID NO: 50) treatment will have effects on insulin sensitivity. […] […] Cells were then collected for Western blot analysis to detect phosphorylated protein kinase B (pAkt), which is commonly used as marker of insulin signaling.

[2] = Treatment of pre-existing HFD-induced obesity (DIO), male mice; format: in vivo, C57BL/6J male mice
Text: After confirming that concurrent treatment with N-ABD094-rhArg (SEQ ID NO: 50) can effectively prevent HFD-induced obesity and associated complications and comorbidities including insulin resistance, glucose intolerance, hyperglycemia, dyslipidemia, hepatic steatosis, chronic inflammation, and whitening of BAT, next, we studied the efficacy of N-ABD094-rhArg (SEQ ID NO: 50) in reducing obesity and reversing these disorders in mice with pre-existing diet-induced obesity (DIO). C57BL/6J male mice were fed a HFD from 5 week old for 12 weeks to induce obesity and associated complications and comorbidities. They were then stratified according to the bodyweight into 2 groups and treated with either 600-700U N-ABD094-rhArg (SEQ ID NO: 50) or saline as vehicle control at 7-day intervals for 12 weeks while continued to be fed the HFD. One group of mice were fed a matched low fat diet (LFD) and injected with saline throughout the study to serve as the lean control of various measurements. Two cohorts, with n=5 in each group, have been separately conducted. Mice were housed in groups of 5. Similar results were obtained in the two independent cohorts. Data of one cohort of mice were presented in Examples 23-28.

B1: N-ABD094-rhArg: albumin binding domain ABD094 fused N-terminally to recombinant human arginase I, SEQ ID NO: 50 (protein)
chain: MHHHHHHDEAVDANSLAEAKEAANAELDSYGVSDFYKRLIDKAKTVEGVEALKDAILAALPSGSNNNNNNGSGGMSAKSRTIGIIGAPFSKGQPRGGVEEGPTVLRKAGLLEKLKEQECDVKDYGDLPFADIPNDSPFQIVKNPRSVGKASEQLAGKVAEVKKNGRISLVLGGDHSLAIGSISGHARVHPDLGVIWVDAHTDINTPLTTTSGNLHGQPVSFLLKELKGKIPDVPGFSWVTPCISAKDIVYIGLRDVDPGEHYILKTLGIKYFSMTEVDRLGIGKVMEETLSYLLGRKKRPIHLSFDVDGLDPSFTPATGTPVVGGLTYREGLYITEEIYKTGLLSGLDIMEVNPSLGKTPEEVTRTVNTAVAITLACFGLAREGNHKPIDYLNPPK
modifications: Mn2+; N-ABD094-rhArg, Synthesized in the Lab
- phosphorylation of Akt upon insulin stimulation ([1]; 5U/mL 24 hr, then 100 nM insulin 20 min): prominent increase
- cell viability (MTT) ([1]; 5U/mL, 48 hr): did not affect cell viability
- HOMA-IR score ([2]; 4 weeks after treatment (35.1 prior to treatment)): 1.2
- Mcp1 and Tgfb expression in pancreas ([2]; 12 weeks): significantly downregulate
- Mcp1 expression in perigonadal WAT ([2]; 12 weeks): significantly downregulated
- WAT within the pancreas and heart (histology) ([2]; 12 weeks): prominent reduction
- amount of collagen fibres in kidney (Sirius red) ([2]; 12 weeks): prominently reduced
- anti-inflammatory genes (Il10, Il22, Infg) in liver ([2]; 12 weeks): markedly upregulate
- lipid droplets in liver (oil red O) ([2]; 12 weeks): dramatic clearance
- liver triglyceride concentrations ([2]; 12 weeks): reduced to a level similar to the lean control
- plasma ALT and AST concentrations ([2]; 12 weeks): comparable to the lean control
- profibrotic gene Col1a1 in kidney ([2]; 12 weeks): greatly suppressed
- profibrotic gene Tgfb in liver ([2]; 12 weeks): restored to a level similar to the lean control
- proinflammatory genes (Il1a, Il1b) in liver ([2]; 12 weeks): significantly downregulate
- proinflammatory genes (Mcp1, Tnfa, Il1b) in kidney, downregulated to ([2]; 12 weeks): levels similar to the lean control
- serum concentrations of Mcp1 ([2]; 12 weeks): corrected to a level similar to the lean control mice
- triglyceride concentrations in kidney, pancreas, heart and skeletal muscle ([2]; 12 weeks): restored a level similar to the lean control
- vacuoles in renal tubules and lipids in glomeruli (histology) ([2]; 12 weeks): marked reduction
- weight of kidney, pancreas and heart ([2]; 12 weeks, to a level similar to lean control): significantly reduce
- reduction of bodyweight ([2]; 600-700U at 7-day intervals, by 5 weeks, HFD continued): over 30%
- fasting plasma leptin and total cholesterol levels ([2]; 600-700U weekly): markedly reduced to normal levels
- adipocyte size in WAT (histology) ([2]; 600-700U weekly, 12 weeks): prominent diminution
- weight of fat pad at visceral and subcutaneous depots ([2]; 600-700U weekly, 12 weeks): significantly reduced
- mRNA levels of lipogenesis related genes in liver ([2]; 600U weekly, 12 weeks): significantly downregulated
- glucose tolerance (GTT) ([2]; by 3 weeks of treatment): significant improvement
- fasting blood glucose and plasma insulin ([2]; by 4 weeks of treatment): restored to levels similar to the lean control mice
- insulin sensitivity (ITT) ([2]; by 4 weeks of treatment, comparable to lean control): marked increase
- glucose tolerance (GTT) ([2]; by 7 weeks of treatment, level similar to lean control): fully restored
